From patent publication US20080267882A1, “Imaging compounds, methods of making imaging compounds, methods of imaging, therapeutic compounds, methods of making therapeutic compounds, and methods of therapy” (Stanford University, priority 2007, published 2008) come the findings set out here.

Like-named read-outs stand apart in the source and are kept apart here.

Data set [1] is described as follows: biodistribution of ^3H-PTX and ^3H-RGD2−PTX in MDA-MB-435 tumor-bearing mice. Format: in vivo, mouse. To be noted: female, athymic nude (nu/nu), mouse, iv, 2.9 umol/kg, total radioactivity. The procedure: (§1) All animal experiments were performed in compliance with the guidelines for the care and use of research animals established by the Stanford University's Animal Studies Committee. Female athymic nude mice (nu/nu) were obtained from Harlan (Indianapolis, Ind.) at 6-8 weeks of age and were kept under sterile conditions. The MDA-MB-435 cells were harvested and suspended in sterile PBS at a concentration of 5×10^7 cells/mL. Viable cells (5×10^6) in PBS (100 μL) were injected orthotopically in the right mammary fat pad. […] Tumor growth was followed by caliper measurements of perpendicular measures of the tumor. The tumor volume was estimated by the formula: tumor volume=a×(b^2)/2, where a and b are the tumor length and width respectively in mm.
(§2) The animals were euthanized at 4, 24 and 48 h post injection and major organs and tissues were collected correspondingly. Approximately 100 mg of the tissue was added to glass scintillation vials containing 1 mL of tissue solubilizer SoluEne®-350 (Perkin-Elmer, Waltham, Mass.). These samples were digested at 55° C. for overnight followed by bleaching to obtain the decolorized samples. Chemiluminescence was reduced by the addition of glacial acetic acid. Hionic-Fluor liquid scintillation cocktail (Perkin-Elmer) was added to all samples, which were then counted with a Tri-Carb 2800TR liquid scintillation Analyzer (Perkin-Elmer).

For data set [2], the system named is MDA-MB-435 tumor-bearing mice. The data set is described as above. It counts as in vivo, mouse. The procedure:
as §1, §2

Another data set has as its target T1, integrin αvβ3 (Homo sapiens, UniProt P05106+P06756).
T1 construct: evaluated using U87MG cells (integrin αvβ3-positive); endogenous in cells; host or cells: U87MG human glioblastoma cells (ATCC)
Description: competitive cell binding assay using ^125I-echistatin on U87MG cells. To be noted: n=3, read-out: IC50 (inhibition of ^125I-echistatin binding to U87MG cells). The method, then:
Experiments were performed on U87MG human glioblastoma cells with triplicate samples as previously reported.
In vitro integrin αvβ3-binding affinities and specificities of RGD4, PRGD4 and FPRGD4 were assessed via displacement cell binding assays using ^125I-echistatin as the integrin αvβ3-specific radioligand. Experiments were performed on U87MG human glioblastoma cells by the method previously described (J Nucl Med. 2005;46:1707-1718 J Nucl Med. 2006;47:1172-1180, which is incorporated herein by reference for the corresponding discussion). […] Experiments were performed with triplicate samples.
Experiments were performed with triplicate samples.
In vitro integrin-binding affinity and specificity of RGD multimers and DOTA-RGD multimers were assessed via competitive cell binding assays using ^125I-echistatin as the integrin αvβ3-specific radioligand (J Nucl Med. 2005;46:1707-1718, which is incorporated herein by reference for the corresponding discussion). […] Experiments were performed with triplicate samples.

The mark [3] stands for this setting: tumor/kidney, read-out: tumor/kidney ratio.
The mark [4] stands for this setting: tumor/liver, read-out: tumor/liver ratio.
[5] abbreviates: tumor/muscle, read-out: tumor/muscle ratio.

For the compound `CC(=O)O[C@H]1C(=O)[C@@]2(C)[C@H]([C@H](OC(=O)c3ccccc3)[C@]3(O)C[C@H](OC(=O)[C@H](OC(=O)CCC(=O)N[C@@H](CCC(=O)NCCCC[C@@H]4NC(=O)[C@@H](Cc5ccc(O)cc5)NC(=O)[C@H](CC(=O)O)NC(=O)CNC(=O)[C@H](CCCNC(=N)N)NC4=O)C(=O)NCCCC[C@@H]4NC(=O)[C@@H](Cc5ccc(O)cc5)NC(=O)[C@H](CC(=O)O)NC(=O)CNC(=O)[C@H](CCCNC(=N)N)NC4=O)[C@@H](NC(=O)c4ccccc4)c4ccccc4)C(C)=C1C3(C)C)[C@]1(OC(C)=O)CO[C@@H]1C[C@@H]2O` [^3H-RGD2−PTX], in data set [1] (setting [3]), the tissue to tissue ratio at 4 h was found to be 0.25, the tissue to tissue ratio at 24 h was found to be 0.68 and the tissue to tissue ratio at 48 h was determined as 0.53. In addition, in data set [1] (setting [4]), the tissue to tissue ratio at 4 h came to 0.29, the tissue to tissue ratio at 24 h is 0.45 and the tissue to tissue ratio at 48 h came out at 0.27. Also, in data set [1] (setting [5]), the tissue to tissue ratio at 4 h is 2.86, the tissue to tissue ratio at 24 h stood at 2.82 and the tissue to tissue ratio at 48 h came out at 1.74. In data set [2] (4 h), the “tissue concentration, Blood” value was 101.7 ± 30.8 ng/g; the “tissue concentration, Heart” value turned out to be 228.7 ± 29.8 ng/g; the “tissue concentration, Intestine” value is recorded as 127.8 ± 20.3 ng/g; the “tissue concentration, Kidney” value is 1421.6 ± 289.8 ng/g. In addition, in data set [2] (4 h), the “tissue concentration, Liver” value came to 1252.9 ± 109.9 ng/g; the “tissue concentration, Lung” value is given as 300.4 ± 30.9 ng/g; the “tissue concentration, MDA-MB-435 tumor” value was found to be 357.5 ± 62.62 ng/g; the “tissue concentration, Muscle” value is given as 125.1 ± 24.0 ng/g. Moreover, in data set [2] (4 h), the “tissue concentration, Skin” value was 144.1 ± 15.9 ng/g; the “tissue concentration, Spleen” value was determined as 322.3 ± 59.3 ng/g; the “tissue concentration, Stomach” value amounted to 119.0 ± 16.7 ng/g; the tumor/muscle ratio is recorded as 2.86. For the same compound, in data set [2] (4 h, listed as 3H-RGD2-PTX), the “tissue concentration, Liver” value was 1252.9 ± 109.9 ng/g and the “tissue concentration, MDA-MB-435 tumor” value is recorded as 357.5 ± 62.6 ng/g. Also, in data set [2] (24 h), the “tissue concentration, Blood” value is 143.1 ± 18.0 ng/g; the “tissue concentration, Heart” value was 170.7 ± 18.6 ng/g; the “tissue concentration, Intestine” value is recorded as 52.1 ± 7.5 ng/g; the “tissue concentration, Kidney” value worked out at 338.9 ± 22.1 ng/g. Further, in data set [2] (24 h), the “tissue concentration, Liver” value is on record as 510.4 ± 28.9 ng/g; the “tissue concentration, Lung” value turned out to be 238.6 ± 75.6 ng/g; the “tissue concentration, MDA-MB-435 tumor” value is 229.4 ± 50.4 ng/g; the “tissue concentration, Muscle” value is reported as 81.2 ± 11.4 ng/g. Also, in data set [2] (24 h), the “tissue concentration, Skin” value is 87.2 ± 16.1 ng/g; the “tissue concentration, Spleen” value is on record as 228.7 ± 39.4 ng/g; the “tissue concentration, Stomach” value stood at 71.63 ± 9.5 ng/g; the tumor/muscle ratio was found to be 2.82. Moreover, the “tissue concentration, MDA-MB-435 tumor” value in data set [2] (24 h, listed as 3H-RGD2-PTX) is recorded as 229.4 ± 50.4 ng/g. For the same compound, in data set [2] (48 h), the “tissue concentration, Blood” value is reported as 225.4 ± 12.8 ng/g; the “tissue concentration, Heart” value came out at 222.5 ± 16.2 ng/g; the “tissue concentration, Intestine” value came out at 50.8 ± 9.5 ng/g; the “tissue concentration, Kidney” value stood at 281.8 ± 32.6 ng/g. For the same compound, in data set [2] (48 h), the “tissue concentration, Liver” value turned out to be 545.3 ± 30.6 ng/g; the “tissue concentration, Lung” value was 207.8 ± 48.2 ng/g; the “tissue concentration, MDA-MB-435 tumor” value was found to be 148.8 ± 40.2 ng/g; the “tissue concentration, Muscle” value is on record as 85.6 ± 28.0 ng/g. For the same compound, in data set [2] (48 h), the “tissue concentration, Skin” value is reported as 66.0 ± 9.1 ng/g; the “tissue concentration, Spleen” value turned out to be 227.9 ± 28.2 ng/g; the “tissue concentration, Stomach” value stood at 71.7 ± 12.2 ng/g; the tumor/muscle ratio came to 1.74. Besides, in data set [2] (48 h, listed as 3H-RGD2-PTX), the “tissue concentration, MDA-MB-435 tumor” value is given as 148.8 ± 40.2 ng/g.

`N=C(N)NCCC[C@@H]1NC(=O)[C@H](CCCCNC(=O)CC[C@H](NC(=O)CC[C@H](NC(=O)COCCOCCOCCNC(=O)c2ccc(F)cc2)C(=O)N[C@@H](CCC(=O)NCCCC[C@@H]2NC(=O)[C@@H](Cc3ccc(O)cc3)NC(=O)[C@H](CC(=O)O)NC(=O)CNC(=O)[C@H](CCCNC(=N)N)NC2=O)C(=O)NCCCC[C@@H]2NC(=O)[C@@H](Cc3ccc(O)cc3)NC(=O)[C@H](CC(=O)O)NC(=O)CNC(=O)[C@H](CCCNC(=N)N)NC2=O)C(=O)NCCCC[C@@H]2NC(=O)[C@@H](Cc3ccc(O)cc3)NC(=O)[C@H](CC(=O)O)NC(=O)CNC(=O)[C@H](CCCNC(=N)N)NC2=O)NC(=O)[C@@H](Cc2ccc(O)cc2)NC(=O)[C@H](CC(=O)O)NC(=O)CNC1=O` [FPRGD4, FB-NH-mini-PEG-CO-E{E[c(RGDyK)]2}2]: the IC50 on integrin αvβ3 (Example 2) came to 37.7 ± 7 nM.

As to `N=C(N)NCCC[C@@H]1NC(=O)[C@H](CCCCNC(=O)CC[C@H](NC(=O)CC[C@H](NC(=O)COCCOCCOCCN)C(=O)N[C@@H](CCC(=O)NCCCC[C@@H]2NC(=O)[C@@H](Cc3ccc(O)cc3)NC(=O)[C@H](CC(=O)O)NC(=O)CNC(=O)[C@H](CCCNC(=N)N)NC2=O)C(=O)NCCCC[C@@H]2NC(=O)[C@@H](Cc3ccc(O)cc3)NC(=O)[C@H](CC(=O)O)NC(=O)CNC(=O)[C@H](CCCNC(=N)N)NC2=O)C(=O)NCCCC[C@@H]2NC(=O)[C@@H](Cc3ccc(O)cc3)NC(=O)[C@H](CC(=O)O)NC(=O)CNC(=O)[C@H](CCCNC(=N)N)NC2=O)NC(=O)[C@@H](Cc2ccc(O)cc2)NC(=O)[C@H](CC(=O)O)NC(=O)CNC1=O` [PRGD4, NH2-mini-PEG-CO-E{E[c(RGDyK)]2}2], on integrin αvβ3 (Example 2), the IC50 worked out at 46.5 ± 5.3 nM.

On to `N=C(N)NCCC[C@@H]1NC(=O)[C@H](CCCCNC(=O)CC[C@H](NC(=O)CC[C@H](NC(=O)CC[C@H](NC(=O)CN2CCN(CC(=O)O)CCN(CC(=O)O)CCN(CC(=O)O)CC2)C(=O)N[C@@H](CCC(=O)N[C@@H](CCC(=O)NCCCC[C@@H]2NC(=O)[C@@H](Cc3ccc(O)cc3)NC(=O)[C@H](CC(=O)O)NC(=O)CNC(=O)[C@H](CCCNC(=N)N)NC2=O)C(=O)NCCCC[C@@H]2NC(=O)[C@@H](Cc3ccc(O)cc3)NC(=O)[C@H](CC(=O)O)NC(=O)CNC(=O)[C@H](CCCNC(=N)N)NC2=O)C(=O)N[C@@H](CCC(=O)NCCCC[C@@H]2NC(=O)[C@@H](Cc3ccc(O)cc3)NC(=O)[C@H](CC(=O)O)NC(=O)CNC(=O)[C@H](CCCNC(=N)N)NC2=O)C(=O)NCCCC[C@@H]2NC(=O)[C@@H](Cc3ccc(O)cc3)NC(=O)[C@H](CC(=O)O)NC(=O)CNC(=O)[C@H](CCCNC(=N)N)NC2=O)C(=O)N[C@@H](CCC(=O)NCCCC[C@@H]2NC(=O)[C@@H](Cc3ccc(O)cc3)NC(=O)[C@H](CC(=O)O)NC(=O)CNC(=O)[C@H](CCCNC(=N)N)NC2=O)C(=O)NCCCC[C@@H]2NC(=O)[C@@H](Cc3ccc(O)cc3)NC(=O)[C@H](CC(=O)O)NC(=O)CNC(=O)[C@H](CCCNC(=N)N)NC2=O)C(=O)NCCCC[C@@H]2NC(=O)[C@@H](Cc3ccc(O)cc3)NC(=O)[C@H](CC(=O)O)NC(=O)CNC(=O)[C@H](CCCNC(=N)N)NC2=O)NC(=O)[C@@H](Cc2ccc(O)cc2)NC(=O)[C@H](CC(=O)O)NC(=O)CNC1=O` [DOTA-RGD octamer], for which the IC50 on integrin αvβ3 (Example 4) came to 11 nM.

Broadly, the IC50 is the midpoint of a concentration-inhibition curve.
